Results from US10538591B2, “Anti-fibulin-3 antibodies and uses thereof” (THE BRIGHAM AND WOMEN'S HOSPITAL, INC., priority 2014, dated 2020).
Where “and” joins values, the source holds several entries; their conditions need not be identical. Equal values may be shown once.

What was measured:
[1] = Acute toxicity, single IV injection dose-escalation; format: in vivo, athymic mice; set-up: Endpoint weight / Endpoint weight Average: unit not given here; Pre-inject weight / Pre-inject weight Average: unit: g; conditions: for Endpoint weight Average / Pre-inject weight Average: group average; for Endpoint weight / Pre-inject weight: individual mouse
Experimental: Table 2 summarizes the results of acute toxicity assays for mAb428.2 injected intravenously (IV) into mice. A dose-escalation study was performed with athymic mice that received a single IV injection of mAb428.2 (purified in low-endotoxin conditions). Doses ranged from 0.1 to 30 mg/kg and mice were observed (and weighed) for periods ranging from 15 minutes to 14 days after injection. Mice were perfused with 4% paraformaldehyde and several organs were recovered, processed for histochemistry and analyzed by a specialist in rodent histopathology. Note that recovered organs and tissues for FFPE+H&E processing were: cerebrum, cerebellum, eyes, liver, kidney, skin, forepaws (to assess connective tissue). This study was performed independently at the Beth Israel Deaconess Medical Center Preclinical Murine Pharmacogenomics Core and tissues were evaluated at the Dana-Farber/Harvard Cancer Center Rodent Histopathology Core.

[2] = test system: GBM34 glioblastoma stem cells; assay: Intratumoral injection in subcutaneous GBM34 xenografts; format: in vivo, Athymic mice
Experimental: (§1) Athymic mice received sub-cutaneous (SQ) bilateral implants of GBM34 glioblastoma stem cells (1×10^6 cells/50 μl). Tumors were allowed to grow until they reached a volume of 100 mm^3. Animals (N=5/group) were then injected with mAb428.2 (10 mg/kg) in the left-side tumor and non-immune mouse IgG1 in the right-side tumor, every two days (total: 4 injections). Mice were sacrificed when any of their tumors reached a length >18 mm. […] Growth curves were analyzed by repeated-measures ANOVA and final parameters were compared by paired T-test.
as §1, with “received SQ” for “received sub-cutaneous (SQ)”, “Animals (N=3/group)” for “Animals (N=5/group)”, “with mAb428.3C11 (30” for “with mAb428.2 (10”, “(total: 3” for “(total: 4”, “length >=20” for “length >18”

fibulin-4 = target: T1, fibulin-4 (Homo sapiens, UniProt O95967); assay: Cross-reactivity against homologous fibulin-4; format: binding
T1 sequence (O95967 24-443): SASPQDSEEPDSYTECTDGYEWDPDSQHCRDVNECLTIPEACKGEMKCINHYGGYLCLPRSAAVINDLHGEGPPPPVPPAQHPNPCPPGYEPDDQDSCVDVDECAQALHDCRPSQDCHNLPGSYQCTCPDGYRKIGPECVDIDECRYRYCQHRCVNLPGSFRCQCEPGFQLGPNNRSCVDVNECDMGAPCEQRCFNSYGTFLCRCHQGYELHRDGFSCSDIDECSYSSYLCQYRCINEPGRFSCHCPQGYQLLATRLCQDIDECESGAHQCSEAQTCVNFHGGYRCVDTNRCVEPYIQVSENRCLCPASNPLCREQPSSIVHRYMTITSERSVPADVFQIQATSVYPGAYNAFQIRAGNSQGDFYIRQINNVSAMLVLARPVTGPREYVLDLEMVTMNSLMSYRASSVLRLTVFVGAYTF

[3] = 0.1 mg/kg IV, 15 min after injection
[4] = 0.1 mg/kg IV, 24 h after injection
[5] = 0.1 mg/kg IV, 4 days after injection
[6] = 0.1 mg/kg IV, 14 days after injection
[7] = 1 mg/kg IV, 15 min after injection
[8] = 1 mg/kg IV, 24 h after injection
[9] = 1 mg/kg IV, 4 days after injection
[10] = 1 mg/kg IV, 14 days after injection
[11] = 10 mg/kg IV, 15 min after injection
[12] = 10 mg/kg IV, 24 h after injection
[13] = 10 mg/kg IV, 4 days after injection
[14] = 10 mg/kg IV, 14 days after injection
[15] = 30 mg/kg IV, 24 h after injection
[16] = 30 mg/kg IV, 4 days after injection
[17] = 30 mg/kg IV, 14 days after injection
[18] = single IV injection 0.1 to 30 mg/kg, 15 minutes to 14 days

B1: mAb428.2: mouse monoclonal IgG1 kappa antibody against human fibulin-3 peptide SEQ ID NO:2; VH SEQ ID NO: 3, VL SEQ ID NO: 4 (antibody, V domains shown)
VH: QIQLVQSGPELKKPGETVKISCKASGYSFTTYGMSWVKQAPGKGLKWMGWINTYSGVPTYADDFKGRFAFFLETSASTAYLQINNLKNEDTATYFCARWVDYWGQGTTLTVSS
VL: DIKMTQSPSSMYASLGERVTITCKASQDIKSYLSWHQQKPWKSPKTLIYYATSLADGVPSRFSGSGSGQDYSLTISSLESDDTATYYCLQHGKSPYTFGGGTKLEIK
For B1, the “Endpoint weight Average” value [1, 3] was 24.27, the Endpoint weight [1, 3] was 24.80 and 25.60 and 22.40 and the “Endpoint weight Average” value [1, 4] was 25.27. The Endpoint weight [1, 4] was 25.40 and 26.50 and 23.90, the “Endpoint weight Average” value [1, 5] was 24.53 and the Endpoint weight [1, 5] was 25.20 and 24.00 and 24.40. For the same molecule, the “Endpoint weight Average” value [1, 6] was 23.93, the Endpoint weight [1, 6] was 25.20 and 24.90 and 21.70 and the “Pre-inject weight Average” value ([1]; 0.1 mg/kg IV, endpoint 15 min) was 23.95. For the same molecule, the Pre-inject weight ([1]; 0.1 mg/kg IV, endpoint 15 min, measured the day before injection) was 21.60 and 26.30 and 19.7 (*), the “Pre-inject weight Average” value ([1]; 0.1 mg/kg IV, endpoint 24 h) was 24.93 and the Pre-inject weight ([1]; 0.1 mg/kg IV, endpoint 24 h) was 25.10 and 26.30 and 23.40. For the same molecule, the “Pre-inject weight Average” value ([1]; 0.1 mg/kg IV, endpoint 4 days) was 24.93, the Pre-inject weight ([1]; 0.1 mg/kg IV, endpoint 4 days) was 25.10 and 24.80 and 24.90 and the “Pre-inject weight Average” value ([1]; 0.1 mg/kg IV, endpoint 14 days) was 22.40. For the same molecule, the Pre-inject weight ([1]; 0.1 mg/kg IV, endpoint 14 days) was 24.10 and 24.70 and 18.40, the “Endpoint weight Average” value [1, 7] was 24.40 and the Endpoint weight [1, 7] was 25.20 and 24.00 (2×). The “Endpoint weight Average” value [1, 8] was 26.30, the Endpoint weight [1, 8] was 25.80 and 26.30 and 26.80 and the “Endpoint weight Average” value [1, 9] was 23.93. The Endpoint weight [1, 9] was 25.00 and 22.80 and 24.00, the “Endpoint weight Average” value [1, 10] was 24.37 and the Endpoint weight [1, 10] was 24.60 and 24.00 and 24.50. The “Pre-inject weight Average” value ([1]; 1 mg/kg IV, endpoint 15 min) was 24.77, the Pre-inject weight ([1]; 1 mg/kg IV, endpoint 15 min, measured the day before injection) was 25.30 and 24.60 and 24.40 and the “Pre-inject weight Average” value ([1]; 1 mg/kg IV, endpoint 24 h) was 26.13. For the same molecule, the Pre-inject weight ([1]; 1 mg/kg IV, endpoint 24 h) was 25.80 and 25.90 and 26.70, the “Pre-inject weight Average” value ([1]; 1 mg/kg IV, endpoint 4 days) was 24.23 and the Pre-inject weight ([1]; 1 mg/kg IV, endpoint 4 days) was 25.30 and 22.80 and 24.60. The “Pre-inject weight Average” value ([1]; 1 mg/kg IV, endpoint 14 days) was 24.30, the Pre-inject weight ([1]; 1 mg/kg IV, endpoint 14 days) was 24.60 and 23.80 and 24.50 and the “Endpoint weight Average” value [1, 11] was 23.60. For the same molecule, the Endpoint weight [1, 11] was 23.50 and 22.90 and 24.40, the “Endpoint weight Average” value [1, 12] was 26.47 and the Endpoint weight [1, 12] was 26.30 and 25.60 and 27.50. The “Endpoint weight Average” value [1, 13] was 24.00, the Endpoint weight [1, 13] was 24.70 and 23.60 and 23.70 and the “Endpoint weight Average” value [1, 14] was 25.30. For the same molecule, the Endpoint weight [1, 14] was 25.10 and 24.80 and 26.00, the “Pre-inject weight Average” value ([1]; 10 mg/kg IV, endpoint 15 min) was 23.60 and the Pre-inject weight ([1]; 10 mg/kg IV, endpoint 15 min, measured the day before injection) was 23.60 and 23.20 and 24.00. For the same molecule, the “Pre-inject weight Average” value ([1]; 10 mg/kg IV, endpoint 24 h) was 26.00, the Pre-inject weight ([1]; 10 mg/kg IV, endpoint 24 h) was 26.20 and 25.00 and 26.80 and the “Pre-inject weight Average” value ([1]; 10 mg/kg IV, endpoint 4 days) was 24.03. The Pre-inject weight ([1]; 10 mg/kg IV, endpoint 4 days) was 24.70 and 24.00 and 23.40, the “Pre-inject weight Average” value ([1]; 10 mg/kg IV, endpoint 14 days) was 24.90 and the Pre-inject weight ([1]; 10 mg/kg IV, endpoint 14 days) was 24.60 and 24.40 and 25.70. For the same molecule, the “Endpoint weight Average” value [1, 15] was 26.40, the Endpoint weight [1, 15] was 27.40 and 26.30 and 25.50 and the “Endpoint weight Average” value [1, 16] was 24.70. The Endpoint weight [1, 16] was 25.20 and 26.30 and 22.60, the “Endpoint weight Average” value [1, 17] was 23.70 and the Endpoint weight [1, 17] was 25.50 and 23.70 and 21.90. The “Pre-inject weight Average” value ([1]; 30 mg/kg IV, endpoint 24 h) was 26.20, the Pre-inject weight ([1]; 30 mg/kg IV, endpoint 24 h) was 27.40 and 26.10 and 25.10 and the “Pre-inject weight Average” value ([1]; 30 mg/kg IV, endpoint 4 days) was 23.73. The Pre-inject weight ([1]; 30 mg/kg IV, endpoint 4 days) was 24.00 and 25.30 and 21.90, the “Pre-inject weight Average” value ([1]; 30 mg/kg IV, endpoint 14 days) was 22.90 and the Pre-inject weight ([1]; 30 mg/kg IV, endpoint 14 days) was 24.20 and 23.20 and 21.30. The “maximum tolerated dose before causing toxicity (MTD)” value ([1]; single IV injection) was > 30 mg/kg, the “histopathology in tissues stained by H&E” value ([1]; single IV injection 0.1 to 30 mg/kg) was “no evidence of histopathology” and the adverse effects [1, 18] was “no adverse effects after injection”. For the same molecule, the weight loss [1, 18] was “no weight loss”, the “tumor volume and weight compared to control IgG1” value ([2]; 10 mg/kg intratumoral every two days, 4 injections) was “reduction in tumor volume and weight” and the “tumor volume and weight compared to control IgG1” value ([2]; 30 mg/kg intratumoral every two days, 3 injections) was “reduction in tumor volume and weight”. For the same molecule, the median volume reduction ([2]; direct intratumoral injection, GBM stem cell xenograft) was 45% and the “cross-reactivity against fibulin-4” value (fibulin-4) was “no cross-reactivity”.
